Here are results for 35 sequences from the supplement of paper PMC12764529.

± gives the half width of the 95% confidence interval.

Data set [1] in a line: folding stability dG unfold from trypsin proteolysis; higher = more stable. In a few lines:
(§1)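 K50 was inferred by Bayesian fitting of sequencing counts obtained after protease digestion of designed mini-proteins. Unfolding free energy was derived by comparison with a sequence-predicted unfolded-state K50 and a shared folded-state K50, for each protease or both combined. The mini-proteins were under 80 residues, had no cysteine, were carried in a PA-tagged cDNA display construct, and were kept only if AlphaFold2 dimer inter-PAE exceeded 15.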

The nature of data set [2]: folding stability dG unfold (combined trypsin and chymotrypsin); higher = more stable. Summed up: as §1
A short description of data set [3]: folding stability dG unfold from chymotrypsin proteolysis; higher = more stable. In a few lines:
as §1

For the sequence “SAGGSALKNSTLRITVERGNVPFTVEVKLKSVVVDLESGKVDVELPEEFKKLFKGPVKILSLEIPDSAGGSA [r15_710_TrMRF]”, the “folding stability dG unfold” value in data set [1] was found to be 0.884 ± 0.057 kcal/mol; in data set [2], 1.53 ± 0.17 kcal/mol; in data set [3] it was 1.82 ± 0.11 kcal/mol.

As for “SAGGSALLEALKKLAEELGLEVELEEVRVETETRTETRTLPDGRTETRTETEVRVEVKVTVRPKPASAGGSA [r15_561_TrROS_Hall]”, the “folding stability dG unfold” value in data set [1] is 2.59 ± 0.075 kcal/mol; in data set [2] it was 2.71 ± 0.082 kcal/mol; in data set [3], 2.72 ± 0.1 kcal/mol.

Regarding “SAGGSALPIETPSDGVVPYTDPVTGKTYTVTFRRDEGKTSFRVEEPESSATREVTEPVSVTEAVLTSAGGSA [r15_234_JUSTAS]”, the “folding stability dG unfold” value in data set [1] is -0.219 ± 0.12 kcal/mol; in data set [2] it was 0.000309 ± 0.084 kcal/mol; in data set [3] it was 0.069 ± 0.13 kcal/mol.

As to “SAGGSALPPDAPFTVEREVPFTLPDGALVTLYYNPETGTVLVRFYPPDGGEVRVEAKAEEALALLSSAGGSA [r15_2_TrMRF]”, the “folding stability dG unfold” value in data set [1] was found to be 1.17 ± 0.019 kcal/mol; in data set [2] it was 1.31 ± 0.039 kcal/mol; in data set [3], 1.34 ± 0.06 kcal/mol.

With “SAGGSAMAIVEYDPDNRVRAIVYFPGEKRVALVEVDDDTATVTAVYDLSDDGVATYLDEATFEIGGSAGGSA [r2_60_TrMRF]”, the figures for the “folding stability dG unfold” value in data set [1], in data set [2] and in data set [3] were 0.896 ± 0.048 kcal/mol, 0.922 ± 0.046 kcal/mol and 0.87 ± 0.043 kcal/mol, respectively.

As for “SAGGSAMEELKEKVLEAWKKLTPDTPVTIKEINPEKKEITIETTSEEAKEKLKKAAKEMGIKIKIKSAGGSA [r15_196_JUSTAS]”, the results for the “folding stability dG unfold” value in data set [1], in data set [2] and in data set [3] were 0.71 ± 0.27 kcal/mol, 0.63 ± 0.39 kcal/mol and 1.28 ± 0.33 kcal/mol, respectively.

For “SAGGSAMEIEVTLTDPALLEALIAELPYPVEVSEDPTDPSVTRVTLRTETSAEEVREAVARALGLESAGGSA [r15_118_JUSTAS]”, the “folding stability dG unfold” value in data set [1] was found to be 0.732 ± 0.037 kcal/mol; in data set [2] it was 1.07 ± 0.081 kcal/mol; in data set [3], 1.27 ± 0.06 kcal/mol.

Consider “SAGGSAMEIVAVEKGDNTVTLLLRDPETGELYTATFHFIPGSKTVHATVTFPDGSTATFTFDATALSAGGSA [r15_1055_TrMRF]”, for which the figures for the “folding stability dG unfold” value in data set [1], in data set [2] and in data set [3] were 2.82 ± 0.09 kcal/mol, 4.01 ± 0.12 kcal/mol and 4.32 ± 0.068 kcal/mol, respectively.

As to “SAGGSAMERVTITLPDGRELTIERFPEEPNRFVLTFPDGRRLEFEFESPEEGLRAALELVLAGKEGSAGGSA [r15_38_TrMRF]”, the “folding stability dG unfold” value was determined as 3.34 ± 0.075 kcal/mol in data set [1], 3.91 ± 0.06 kcal/mol in data set [2] and 4.13 ± 0.042 kcal/mol in data set [3].

Take “SAGGSAMFMFELTIPPNAKIPPGYKLKIRFPNGKEEEYKFNNGPIKIWFYMDPDGNIQLDLEVEKKSAGGSA [r15_992_TrROS]”: the “folding stability dG unfold” value in data set [1] worked out at 2.97 ± 0.09 kcal/mol; in data set [2], 4.35 ± 0.15 kcal/mol; in data set [3], 4.9 ± 0.14 kcal/mol.

As to “SAGGSAMIEVKIEVPDDASEEEKAELAEKIKKEIKASGVEPTENGIPVKKSLENVEVKVTFLKKKKSAGGSA [r15_717_JUSTAS]”, the results for the “folding stability dG unfold” value in data set [1], in data set [2] and in data set [3] were -0.469 ± 0.2 kcal/mol, -0.196 ± 0.38 kcal/mol and 0.074 ± 0.33 kcal/mol, respectively.

In the case of “SAGGSAMITLEDIKALGPDNPIRTFPETGLVFVERPGELTLYKFDPKTNTVTKLKTFNSPEEKEKLSAGGSA [r15_6_JUSTAS]”, the “folding stability dG unfold” value in data set [1] amounted to 0.405 ± 0.035 kcal/mol; in data set [2] it was 0.863 ± 0.069 kcal/mol; in data set [3], 1.15 ± 0.083 kcal/mol.

“SAGGSAMKEGKPAVEVEVTVLIELSAEEIAKLLGKEIKEGDTVLITVKVRVYPDGSVEIEIRVEKLSAGGSA [r15_91_TrROS_Hall]”: the figures for the “folding stability dG unfold” value in data set [1], in data set [2] and in data set [3] were 2.87 ± 0.15 kcal/mol, 3.08 ± 0.17 kcal/mol and 3.19 ± 0.17 kcal/mol, respectively.

Regarding “SAGGSAMKEITIEVDGKTVRVKVYFKDTGKVVERTFPKGTSVEELAKELEEEFGKDVEIVEVEEVPSAGGSA [r15_544_TrROS_Hall]”, the “folding stability dG unfold” value in data set [1] stood at 2.43 ± 0.11 kcal/mol; in data set [2], 3.24 ± 0.15 kcal/mol; in data set [3], 3.57 ± 0.11 kcal/mol.

With “SAGGSAMKIELENAKILDIKPTPDGKKVIFIELPSGKIIAVYEDNKVAVRSKKDPSVKPEDADPVFSAGGSA [r15_692_TrMRF]”, the “folding stability dG unfold” value was 0.374 ± 0.07 kcal/mol in data set [1], 0.892 ± 0.11 kcal/mol in data set [2] and 1.17 ± 0.046 kcal/mol in data set [3].

For the sequence “SAGGSAMKITYKPPSGETTVHPIPPGLTPEERRALAEELAKALQEKTGDPNVTVEFDPATGEITVASAGGSA [r15_33_JUSTAS]”, the “folding stability dG unfold” value in data set [1] is 1.33 ± 0.034 kcal/mol; in data set [2], 0.84 ± 0.11 kcal/mol; in data set [3], -0.0618 ± 0.15 kcal/mol.

For the sequence “SAGGSAMKIVEKKTVTLTLPDGREVTVTLTKVEVDGETYYVLTVTDKDTGKTYTFVFKPGQSLEDLSAGGSA [r15_75_TrROS_Hall]”, the figures for the “folding stability dG unfold” value in data set [1], in data set [2] and in data set [3] were 3.17 ± 0.092 kcal/mol, 4.39 ± 0.2 kcal/mol and 4.67 ± 0.083 kcal/mol, respectively.

Consider “SAGGSAMKLKLTFVADSPEQAEQLAEEYTRLNPELFPGEKDYPLEIEVYVLVAPPLVPPSPEELAGSAGGSA [r15_663_TrMRF]”, for which the “folding stability dG unfold” value in data set [1] was determined as 1.23 ± 0.051 kcal/mol; in data set [2], 1.69 ± 0.27 kcal/mol; in data set [3], 2.12 ± 0.27 kcal/mol.

In the case of “SAGGSAMKLTAETTDPGSDRFEATIYDPSDSGGDSVVSFESEEELEAFIKNLPSSVASVSLVPTSPSAGGSA [r15_589_JUSTAS]”, the “folding stability dG unfold” value in data set [1] was found to be 0.983 ± 0.017 kcal/mol; in data set [2] it was 0.728 ± 0.033 kcal/mol; in data set [3], 0.378 ± 0.035 kcal/mol.

“SAGGSAMKPDDYVVIKIEIENMSEEEIAKKLADELKKLFPDVEVKVTVEKEEDGRYRVTIEVVLKKSAGGSA [r15_916_TrROS_Hall]”: the figures for the “folding stability dG unfold” value in data set [1], in data set [2] and in data set [3] were 1.83 ± 0.056 kcal/mol, 2.83 ± 0.26 kcal/mol and 3.34 ± 0.15 kcal/mol, respectively.

On to “SAGGSAMKPGQKLLVKNKKTNKIYEITFDKDTGKVYIHNKKTGKTYEFDSLEDALKKMGFEPVKVESAGGSA [r15_500_TrROS_Hall]”, for which the “folding stability dG unfold” value in data set [1] was 1.43 ± 0.078 kcal/mol; in data set [2] it was 2.28 ± 0.16 kcal/mol; in data set [3], 2.45 ± 0.08 kcal/mol.

On to “SAGGSAMKVEIVLKVPGDEMLDIEVDEEFPVVDQTIDKETGIVTVLLEGDPEKAEEIAKEIAEKLGSAGGSA [r15_662_TrMRF]”, for which the “folding stability dG unfold” value in data set [1] stood at 0.6 ± 0.069 kcal/mol; in data set [2] it was 0.511 ± 0.1 kcal/mol; in data set [3], 0.299 ± 0.044 kcal/mol.

Regarding “SAGGSAMKVIVTVKILDKGEVKTLTEEEAKKYLEEHPEEVKEVEVETTVESDATESFTDIDLNGLKSAGGSA [r15_99_JUSTAS]”, the “folding stability dG unfold” value in data set [1] was -0.185 ± 0.21 kcal/mol; in data set [2], 0.416 ± 0.23 kcal/mol; in data set [3], 0.462 ± 0.047 kcal/mol.

As to “SAGGSAMLIRFVRDDKTVELRPFSSIEEARAFLEKGPVEEIEPREAPGGERVTFRAKLPDGEVLVESAGGSA [r15_632_JUSTAS]”, the entries for the “folding stability dG unfold” value in data set [1], in data set [2] and in data set [3] were -0.466 ± 0.23 kcal/mol, -0.542 ± 0.15 kcal/mol and -0.743 ± 0.33 kcal/mol, respectively.

Consider “SAGGSAMLLIKITIETKDGEKYEIVVEAESEEEALAALKEKARELFPELSEEDVKIVDIEVYELEESAGGSA [r15_220_TrROS_Hall]”, for which the “folding stability dG unfold” value in data set [1] was found to be 4.58 ± 0.25 kcal/mol; in data set [2] it was 4.29 ± 0.13 kcal/mol; in data set [3], 4.25 ± 0.088 kcal/mol.

As to “SAGGSAMMELEIEIKVEGMTEEELRELAERLAAELTPEGWKVVAVRVERVDEEEGVVRVTVVVEPVSAGGSA [r15_96_TrROS_Hall]”, the “folding stability dG unfold” value was determined as 4.31 ± 0.35 kcal/mol in data set [1], 4.18 ± 0.27 kcal/mol in data set [2] and 3.83 ± 0.16 kcal/mol in data set [3].

Take “SAGGSAMPDNMKPVGSIPMVYLVPDGWIMRINYEYWKNPESGMWMINMDIEVFPLPKNDPELLKAISAGGSA [r15_207_TrROS]”: the “folding stability dG unfold” value in data set [1] amounted to 2.42 ± 0.18 kcal/mol; in data set [2], 2.62 ± 0.18 kcal/mol; in data set [3] it was 2.65 ± 0.093 kcal/mol.

With “SAGGSAMPEVKVEVEIIERDPENEDYVLVRIKVEVRFKTEDGEEVEVREERELLVFPSEEELKKALSAGGSA [r15_1019_TrROS_Hall]”, the “folding stability dG unfold” value is 2.02 ± 0.064 kcal/mol in data set [1], 1.89 ± 0.33 kcal/mol in data set [2] and 1.82 ± 0.048 kcal/mol in data set [3].

“SAGGSAMPILTDTVYEIPVDRSPDETEEEIKEYLKELLLKKLPPGTEVKLEVKFDPETGTVTVKVVSAGGSA [r15_739_JUSTAS]”: the “folding stability dG unfold” value turned out to be 1.96 ± 0.12 kcal/mol in data set [1], 1.58 ± 0.12 kcal/mol in data set [2] and 0.972 ± 0.037 kcal/mol in data set [3].

As for “SAGGSAMPKIEVTVYFPENGTETVEIHFPPGKVITGPLSLLEEIIESGIPKENISISYKTLSPSLTSAGGSA [r15_955_JUSTAS]”, the “folding stability dG unfold” value in data set [1] is 1.64 ± 0.03 kcal/mol; in data set [2], 1.37 ± 0.041 kcal/mol; in data set [3], 1.05 ± 0.061 kcal/mol.

For “SAGGSAMPKKVVEGPVPPEDVEARIAELLEEDPNLTYVKFTYPELGSEVVIDFENGKVTKIERLLESAGGSA [r15_166_JUSTAS]”, the “folding stability dG unfold” value in data set [1] is -0.217 ± 0.1 kcal/mol; in data set [2] it was 0.108 ± 0.052 kcal/mol; in data set [3] it was 0.211 ± 0.1 kcal/mol.

For “SAGGSAMPKYVISGIYRLPDKTLFFDYVIPPGLAENPERVKELAEEIRELLEQLGYPAVDFKIEPVSAGGSA [r15_781_TrMRF]”, the “folding stability dG unfold” value in data set [1] was determined as 1.65 ± 0.043 kcal/mol; in data set [2] it was 1.99 ± 0.098 kcal/mol; in data set [3], 2.09 ± 0.065 kcal/mol.

As to “SAGGSAMPPVKVEVVEAEPFVVEGEGGLYLVRPFLVRAPDLPRLFLVVLVEDPGEPDVLAEVFDLDSAGGSA [r15_528_TrMRF]”, the “folding stability dG unfold” value in data set [1] worked out at 1.84 ± 0.041 kcal/mol; in data set [2], 2.37 ± 0.099 kcal/mol; in data set [3], 2.55 ± 0.045 kcal/mol.

For “SAGGSAMPVKTSTTTEGDTVTTYTLEPVGGSTTLTTTTTTVTKTNSGTTTTSTTTTTPLPTASGATSAGGSA [r15_725_JUSTAS]”, the “folding stability dG unfold” value in data set [1] was -0.0787 ± 0.022 kcal/mol; in data set [2] it was -0.014 ± 0.074 kcal/mol; in data set [3], -0.108 ± 0.074 kcal/mol.

Consider “SAGGSAMPVVEIEIEVSEEEAEELVKKLKELFPEVEEVEVERTEDGLRIRVRVKLPPLTEEELKAKSAGGSA [r15_166_TrROS_Hall]”, for which the figures for the “folding stability dG unfold” value in data set [1], in data set [2] and in data set [3] were 1.17 ± 0.026 kcal/mol, 1.04 ± 0.054 kcal/mol and 0.987 ± 0.042 kcal/mol, respectively.
